Assay results published in patent publication US20120308570A1, “METHODS FOR TREATING DISEASES” (priority 2009, published 2012).

Columns and labels:
[1] = target: T1, Y120A-SSB-2ΔSB (murine SSB-2 residues 12-224 with tyrosine 120 mutated to alanine) (mouse, UniProt O88838 12-224); assay: ITC
T1 construct: also called SSB-2-Y120A
T1 chain: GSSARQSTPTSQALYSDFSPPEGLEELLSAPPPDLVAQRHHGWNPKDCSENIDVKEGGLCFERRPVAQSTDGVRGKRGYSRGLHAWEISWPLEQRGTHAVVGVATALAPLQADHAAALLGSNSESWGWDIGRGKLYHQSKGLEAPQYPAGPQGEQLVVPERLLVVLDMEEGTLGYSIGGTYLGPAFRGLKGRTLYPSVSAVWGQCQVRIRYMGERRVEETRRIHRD
Experimental: (§1) Wild-type and mutant iNOS peptides (Table 2), corresponding to Lys19-Thr31 of mouse iNOS, were synthesized by GL Biochem (Shanghai) Ltd. These peptides were N-terminal acetylated and C-terminal amidated. All ITC measurements were carried out at 25° C. using a Microcal omega VP-ITC (Microcal Inc., Northampton, Mass.). SSB-2ΔSB was dialysed against buffer (100 mM TrisHCl, 150 mM NaCl, pH 8.0), and wild-type and mutant iNOS N-terminal peptides were prepared in the same buffer from 5 mM stocks. Solutions of 5 to 10 μM SSB-2ΔSB in the cell were titrated by injection of a total of 290 μL of 50-200 μM of iNOS peptides. Data analysis was performed using the evaluation software, MicroCal Origin version 5.0. All curves were fitted using the nonlinear least-squares fitter and the “One Set of Sites” model.
(§2) Mutation of Glu21 had no effect on SSB-2:iNOS peptide binding. […] Binding of an SSB-2-SPRY domain in which tyrosine 120 had. been mutated to alanine (Y120A-SSB-2ΔSB) was assessed by ITC.

[2] = target: T2, SSB-2ΔSB (recombinant murine SSB-2 SPRY domain, residues 12-224) (mouse, UniProt O88838 12-224); assay: ITC, 25 C, peptide injected into SSB-2ΔSB
T2 construct: 226 residues in total; expressed as GST fusion in E. coli, GST cleaved off with thrombin; 15N-labelled for NMR; coupled to NHS-Sepharose for pull-downs; also called SPSB2
T2 sequence: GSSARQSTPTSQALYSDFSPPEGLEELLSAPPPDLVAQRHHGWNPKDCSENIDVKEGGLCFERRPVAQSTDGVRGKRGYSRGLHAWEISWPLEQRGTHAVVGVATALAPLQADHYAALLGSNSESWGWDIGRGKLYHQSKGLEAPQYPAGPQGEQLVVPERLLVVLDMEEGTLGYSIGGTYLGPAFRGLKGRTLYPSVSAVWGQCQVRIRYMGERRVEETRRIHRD
Experimental: (§3) FIG. 3. Typical ITC raw data and titration curves for SSB-2 and iNOS peptide interactions. Titration curves were fitted using the “One Set of Sites” model in MicroCal Origin.
as §1

[3] = target: T1, Y120A-SSB-2ΔSB (murine SSB-2 residues …); assay: ITC, 25 C, wild-type peptide with Y120A-SSB-2ΔSB
Experimental: as §3, §1

[4] = target: T2, SSB-2ΔSB (recombinant murine SSB-2 SPRY …); assay: ITC
Experimental: as §1, §2

[5] = target: T3, full-length iNOS protein (endogenous, from LPS/IFNγ-treated mouse bone marrow-derived macrophages) (mouse, UniProt P29477 1-1144); assay: anti-Flag co-immunoprecipitation, anti-iNOS Western blot
T3 construct: Not purified: present in macrophage lysates; Detected by Western blot with anti-iNOS antibody; also called NOS2; inducible nitric oxide synthase
T3 sequence: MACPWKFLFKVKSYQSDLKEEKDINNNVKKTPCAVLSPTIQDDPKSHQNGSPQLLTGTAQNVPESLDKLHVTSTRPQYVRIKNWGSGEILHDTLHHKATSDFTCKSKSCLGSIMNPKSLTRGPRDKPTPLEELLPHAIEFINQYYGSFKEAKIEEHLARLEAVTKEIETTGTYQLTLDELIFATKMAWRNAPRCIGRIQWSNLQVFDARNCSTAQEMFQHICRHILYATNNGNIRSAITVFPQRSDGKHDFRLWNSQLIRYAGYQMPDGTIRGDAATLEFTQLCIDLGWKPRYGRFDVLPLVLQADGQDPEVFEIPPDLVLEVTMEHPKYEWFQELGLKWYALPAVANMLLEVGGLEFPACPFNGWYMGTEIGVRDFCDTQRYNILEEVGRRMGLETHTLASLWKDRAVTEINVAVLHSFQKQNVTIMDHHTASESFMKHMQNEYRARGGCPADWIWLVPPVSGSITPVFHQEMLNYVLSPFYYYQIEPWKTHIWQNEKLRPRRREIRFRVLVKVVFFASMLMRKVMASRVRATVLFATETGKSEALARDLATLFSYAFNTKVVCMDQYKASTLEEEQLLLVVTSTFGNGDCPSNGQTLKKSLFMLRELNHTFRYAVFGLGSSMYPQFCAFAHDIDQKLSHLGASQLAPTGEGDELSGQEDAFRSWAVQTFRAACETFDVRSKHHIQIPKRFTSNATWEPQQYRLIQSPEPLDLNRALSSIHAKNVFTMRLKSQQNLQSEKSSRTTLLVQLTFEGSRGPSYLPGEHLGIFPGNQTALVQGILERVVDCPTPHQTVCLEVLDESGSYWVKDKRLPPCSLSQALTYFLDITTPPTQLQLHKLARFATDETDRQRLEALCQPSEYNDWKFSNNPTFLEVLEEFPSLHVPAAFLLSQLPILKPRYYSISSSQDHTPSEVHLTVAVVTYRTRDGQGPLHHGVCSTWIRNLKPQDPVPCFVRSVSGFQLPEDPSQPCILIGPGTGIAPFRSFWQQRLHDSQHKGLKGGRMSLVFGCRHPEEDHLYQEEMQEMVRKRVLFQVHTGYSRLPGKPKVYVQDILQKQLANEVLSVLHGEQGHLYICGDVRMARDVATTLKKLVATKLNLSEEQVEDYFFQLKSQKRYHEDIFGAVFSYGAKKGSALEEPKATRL
Description: (§4) FIG. 6. Interaction between iNOS and SSB-1, -2, and -4 and SSB-2 residues affecting 10 iNOS binding. (A) iNOS interacts preferentially with SSB-2 and SSB-4. 293T cells were transiently transfected with vector alone or cDNA encoding either Flag-tagged SSB-1, SSB-2, SSB-3 or SSB-4. Cells were lysed, and mixed with BMDM lysates from cells induced to express iNOS. Flag-tagged proteins were immunoprecipitated using anti-Flag antibodies (M2-beads) and separated by SDSPAGE. Co-immunoprecipitation of iNOS was detected by Western blot with anti-iNOS antibodies (upper panel). Membranes were stripped and reprobed with rat anti-Flag antibodies (middle panel). Comparative expression of Flag-tagged proteins in 293T lysates is shown by Western blot (lower panel). (B) SSB-2 residues affecting iNOS binding. Residues in the SSB-2 SPRY domain were mutated to Ala or Phe (for Y120) based on SSB-2 structure and sequence conservation. 293T cells 20 were transiently transfected with cDNA encoding Flag-tagged wild-type or mutant SSB-2. Cells were lysed, and mixed with BMDM lysates from cells induced to express iNOS. Flag-tagged proteins were immunoprecipitated using anti-Flag antibodies and separated by SDS-PAGE. Coimmunoprecipitation of iNOS was detected by Western blot with anti-iNOS antibodies.

[6] = target: T3, full-length iNOS protein (endogenous, …); assay: anti-Flag co-immunoprecipitation from mixed 293T and BMDM lysates, anti-iNOS Western blot
Description: as §4, with “293T cells 20 were transiently transfected with cDNA encoding Flag-tagged wild-type or mutant SSB-2. Cells were lysed, and mixed with BMDM lysates from cells induced to express iNOS. Flag-tagged proteins were immunoprecipitated using anti-Flag antibodies and separated by SDS-PAGE.” left out
To investigate whether other SSB family members were able to interact with iNOS, 293T cells were transiently transfected with cDNA expressing SSB-1, SSB-2, SSB-3 or SSB-4 with an N-terminal Flag-epitopetag. […] SSB proteins were immunoprecipitated using anti-Flag antibodies coupled to Sepharose and association of iNOS analysed by Western blot. […]

[7] = target: T3, full-length iNOS protein (endogenous, …); assay: anti-SSB-2 immunoprecipitation from BMDM, anti-iNOS Western blot (FIG. 5B)
Experimental: FIG. 5. SSB-2 interacts with endogenous full-length iNOS protein. (A) SSB-2 interacts with full-length iNOS and this requires tyrosine 120 in the SPRY domain peptide-binding surface. Bone marrow-derived macrophages (BMDM) from C57BL/6 mice were incubated with 20 ng/ml IFNγ and 1 μg/ml LPS for 16 h, lysed and incubated with NHS-sepharose beads coupled with recombinant SSB-2 or SSB-2-Y120A proteins, or with uncoupled NHS-sepharose beads (CON), for 3 h at 4° C. Associated proteins were then separated by SDS-PAGE and transferred to PVDF membrane. iNOS was detected by Western blot with specific anti-iNOS antibodies (upper panel). Equivalent amounts of SSB-2 and SSB-2-Y120A were confirmed by reprobe with anti-SSB-2 antibodies (lower panel). (B) Interaction between endogenous iNOS and SSB-2 proteins. Bone marrow-derived macrophages from SSB-2-deficient mice (Ssb-2^{-/-}) or wild-type littermate controls (Ssb-2^{+/+}) were incubated with (+) or without (−) 20 ng/ml IFNγ and 20 ng/ml LPS for 16 h, lysed and endogenous SSB-2 proteins immunoprecipitated using rabbit anti-SSB-2 antibody coupled to NHS-Sepharose. Immunoprecipitates were separated by SDS-PAGE and associated iNOS protein detected by Western blot with specific antibodies (upper panel). […]

B1: iNOS N-terminal peptide I, wild-type, Ac-KEEKDINNNVKKT-NH2 (peptide)
peptide: Ac-KEEKDINNNVKKT-NH2
notes: Synthetic peptide (GL Biochem); also called wild-type iNOS peptide; iNOS peptide
[1]
  fold reduced affinity against SSB-2ΔSB: ~5000 fold
[2]
  Kd: 13.3 nM
[3]
  Kd: 76300 nM

## Ac-KEEADINNNAKAT-NH2 [iNOS N-terminal peptide XV, Ac-KEEADINNNAKAT-NH2]
[4]
  fold decrease of binding affinity against the wild-type peptide: ~24 fold
[2]
  Kd: 311 nM

## Ac-KEEKDINNNAKKT-NH2 [iNOS N-terminal peptide XII, Ac-KEEKDINNNAKKT-NH2]
[4]
  fold lower binding affinity than the wild-type peptide: 2 to 4 fold
[2]
  Kd: 56.8 nM

## Ac-KEEKDINNNVKAT-NH2 [iNOS N-terminal peptide XIII, Ac-KEEKDINNNVKAT-NH2]
[4]
  fold lower binding affinity than the wild-type peptide: 2 fold
[2]
  Kd: 29.8 nM

B2: Flag-tagged SSB-2 mutant Y120 to phenylalanine (other)
chain: DYKDDDDKMGQTALARGSSSTPTSQALYSDFSPPEGLEELLSAPPPDLVAQRHHGWNPKDCSENIDVKEGGLCFERRPVAQSTDGVRGKRGYSRGLHAWEISWPLEQRGTHAVVGVATALAPLQADHFAALLGSNSESWGWDIGRGKLYHQSKGLEAPQYPAGPQGEQLVVPERLLVVLDMEEGTLGYSIGGTYLGPAFRGLKGRTLYPSVSAVWGQCQVRIRYMGERRVEEPQSLLHLSRLCVRHALGDTRLGQISTLPLPPAMKRYLLYK
[5]
  binding result: no binding

B3: Flag-tagged SSB-3 (murine, expressed in 293T cells) (other, mouse)
chain: DYKDDDDKMARRTRSSRAWHFVLSAARRDTDARAVALAGSSNWGYDSDGQHSDSDSDPEYSSLPPSIPSAVPVTGESFCDCEGQNEATFCNSLHTAHRGKDCRCGEEDEDFDWVWDDLNKSSATLLSCDNRKVSFHMEYSCGTAAIRGTKELGDGQHFWEIKMTSPVYGTDMMVGIGTSDVDLDKYHHTFCSLLGRDEDSWGLSYTGLLHHKGDKTSFSSRFGQGSIIGVHLDTWHGTLTFFKNRKCIGVAATRLQNRRFYPMVCSTAAKSSMKVIRSCASSTSLQYLCCYRLRQLRPNSGDTLEGLPLPPGLKQVLHNKLGWVLSMNCNHWKSPVPPPGTATPGAESLETRPCQRKRCRRS
notes: also called SPSB3
[6]
  binding result: no binding

B4: endogenous SSB-2 protein (mouse bone marrow-derived macrophages) (other)
chain: MGQTALARGSSSTPTSQALYSDFSPPEGLEELLSAPPPDLVAQRHHGWNPKDCSENIDVKEGGLCFERRPVAQSTDGVRGKRGYSRGLHAWEISWPLEQRGTHAVVGVATALAPLQADHYAALLGSNSESWGWDIGRGKLYHQSKGLEAPQYPAGPQGEQLVVPERLLVVLDMEEGTLGYSIGGTYLGPAFRGLKGRTLYPSVSAVWGQCQVRIRYMGERRVEEPQSLLHLSRLCVRHALGDTRLGQISTLPLPPAMKRYLLYK
notes: Immunoprecipitated with rabbit anti-SSB-2 antibody coupled to NHS-Sepharose; also called SPSB2
[7]
  binding result: binds
